Measurements published in paper PMC3408474, “Constitutive Phosphorylation of Interferon Receptor A-Associated Signaling Proteins in Systemic Lupus Erythematosus” (PLoS ONE, 2012).

Assays:
[1] = molecular target: T1, IFNAR2 chain of the type I interferon receptor (IFNAR) (human (endogenous in PBMC), UniProt P48551 27-515); assay: co-IP; lysates (50 µg total protein) of PBMC from SLE patients or healthy controls, cultured in medium alone or with 50 U/ml IFNβ for 0, 30 min, 1 h and 4 h; incubated overnight at 4°C with mouse anti-IFNAR1 (protein A-Sepharose 4B) and/or rabbit anti-IFNAR2 (protein G-Sepharose 4B); blotted for SOCS1, STAT2, Jak1 and Tyk2; details: partners not purified
T1 construct: IFNAR2 chain of the human type I interferon receptor, endogenous in peripheral blood mononuclear cells; precipitated with rabbit anti-IFNAR2 and protein G-Sepharose; source: endogenous, lysate of PBMC from SLE patients or healthy controls
T1 sequence (looked up): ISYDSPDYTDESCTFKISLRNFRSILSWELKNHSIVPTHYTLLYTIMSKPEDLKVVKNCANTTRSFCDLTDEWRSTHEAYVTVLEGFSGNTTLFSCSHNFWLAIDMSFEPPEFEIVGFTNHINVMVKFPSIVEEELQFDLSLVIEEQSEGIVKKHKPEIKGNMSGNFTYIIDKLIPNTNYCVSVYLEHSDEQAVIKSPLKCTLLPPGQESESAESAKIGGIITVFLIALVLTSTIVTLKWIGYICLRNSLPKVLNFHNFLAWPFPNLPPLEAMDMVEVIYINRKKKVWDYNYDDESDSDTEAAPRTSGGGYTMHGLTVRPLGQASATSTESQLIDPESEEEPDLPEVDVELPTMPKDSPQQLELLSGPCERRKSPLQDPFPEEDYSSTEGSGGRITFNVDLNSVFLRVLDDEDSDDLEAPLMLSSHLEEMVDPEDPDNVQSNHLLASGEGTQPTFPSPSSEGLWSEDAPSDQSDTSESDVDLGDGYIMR

[2] = molecular target: T2, IFNAR1 chain of the type I interferon receptor (IFNAR) (human (endogenous in PBMC), UniProt P17181 28-557); assay: as above; details: partners not purified
T2 construct: IFNAR1 chain of the human type I interferon receptor, endogenous in peripheral blood mononuclear cells; precipitated with mouse anti-IFNAR1 and protein A-Sepharose; source: endogenous, lysate of PBMC from SLE patients or healthy controls
T2 sequence (looked up): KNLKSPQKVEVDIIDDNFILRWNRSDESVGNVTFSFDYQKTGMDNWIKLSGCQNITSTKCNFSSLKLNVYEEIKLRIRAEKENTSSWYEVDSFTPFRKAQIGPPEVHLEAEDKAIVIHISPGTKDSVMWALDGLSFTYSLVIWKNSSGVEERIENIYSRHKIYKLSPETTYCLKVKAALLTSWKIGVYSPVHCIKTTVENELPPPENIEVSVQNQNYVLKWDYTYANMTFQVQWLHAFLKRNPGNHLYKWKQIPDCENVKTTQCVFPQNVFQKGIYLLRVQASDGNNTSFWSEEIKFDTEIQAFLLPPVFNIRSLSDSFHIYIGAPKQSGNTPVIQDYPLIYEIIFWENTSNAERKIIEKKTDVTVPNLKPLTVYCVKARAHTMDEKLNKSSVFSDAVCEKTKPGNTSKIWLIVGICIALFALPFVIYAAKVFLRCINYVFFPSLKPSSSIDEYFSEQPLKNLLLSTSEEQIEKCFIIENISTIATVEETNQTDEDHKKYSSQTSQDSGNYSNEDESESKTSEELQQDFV

- fold increase of association one hour after IFNβ over unstimulated cells [1]: ~6 fold
- fold increase of association one hour after IFNβ over unstimulated cells [2]: < 1 fold
B1: suppressor of cytokine signaling 1 (SOCS1) (natural protein, human (endogenous in PBMC), UniProt O15524 1-211, looked up)
chain: MVAHNQVAADNAVSTAAEPRRRPEPSSSSSSSPAAPARPRPCPAVPAPAPGDTHFRTFRSHADYRRITRASALLDACGFYWGPLSVHGAHERLRAEPVGTFLVRDSRQRNCFFALSVKMASGPTSIRVHFQAGRFHLDGSRESFDCLFELLEHYVAAPRRMLGAPLRQRRVRPLQELCRQRIVATVGRENLARIPLNPVLRDYLSSFPFQI
notes: SOCS1, endogenous in human peripheral blood mononuclear cells; detected by blot with anti-SOCS1; source: endogenous, lysate of PBMC from SLE patients or healthy controls
